# Laboratory results from patent US20090291088A1, “THERAPEUTIC COMBINATIONS OF ANTI-IGF-1R ANTIBODIES AND OTHER COMPOUNDS” (Biogen Idec MA Inc., priority 2008, published 2009).
# B1: M14-C03: anti-IGF-1R antibody, allosteric blocker of IGF-1 and IGF-2 (antibody, V domains shown)
# VH: EVQLLESGGGLVQPGGSLRLSCAASGFTFSKYMMSWVRQAPGKGLEWVSYISPSGGLTWYADSVKGRFTISRDNSKNTLYLQMNSLRAEDTAVYYCARDGARGYGMDVWGQGTTVTVSS
# VL: DIQMTQSPATLSLSPGERATLSCRASQSVSSYLAWYQQKPGQAPRLLIYDASNRATGIPARFSGSGSGTDFTLTISSLEPEDFAVYYCQQRSNWPPEVTFGPGTKVDIK
# modifications: Antibody variable heavy chain sequence; Antibody variable light chain sequence
# Key:
# [1] = target: T1, human IGF-1R(1-902)-His10 (Homo sapiens, UniProt P08069); assay: SPR, receptor ectodomain injected over immobilized antibodies: hIGF-1R-His10; format: binding; details: full-length fully human antibodies; even at the lowest concentration
# T1 construct: human IGF-1R(1-902)-His10 (hIGF-1R-His10 (R&D systems)); purchased R&D systems 305-GR-050
# Description: SPR analyses were performed using a Biacore3000. The instrument was set to 25° C. and assays performed with running buffer HBS-EP pH 7.2 purchased from Biacore (Biacore, Cat. No. BR-1001-88). The fully human antibodies, M13-C06, M14-C03, and M14-G11 were immobilized to ˜10,000 RU on Biacore CM5 Research Grade Sensor Chip surfaces using the standard NHS/EDC-amine reactive chemistry according to protocols supplied by Biacore. For immobilization, the antibodies were diluted to 40 μg/mL in a 10 mM Acetate pH 4.0 buffer. To investigate the relative kinetics of association and dissociation of the full-length ectodomains of human IGF-1R(1-902)-His10 (hIGF-1R-His10 (R&D systems)) and human INSR(28-956)-His10 (INSR (R&D systems)) to each of the human antibodies, increasing concentrations of hIGF-1R-His10 or INSR were injected over the sensorchip surfaces. The hIGF-1R-His10 concentration series ranged from 1.0 nM to 250 nM while the INSR concentrations ranged from 1.0 nM to 2 μM. All antibody surfaces were reliably regenerated with 100 mM Glycine, pH 2.0. […] Flow rates were 20 μl/min. (“His10” denotes a 10-residue histidine tag on the C-terminus of the constructs.)
# [2] = target: T2, hIGF-1R(1-462)-Fc (Homo sapiens, UniProt P08069); assay: SPR binding of immobilized antibodies to truncated hIGF-1R(1-462)-Fc versus hIGF-1R(1-903)Fc; details: surface immobilized antibody
# T2 construct: host or cells: CHO
# Source text: Next, we investigated whether M13-C06 binds the putative ligand binding domains of IGF-1R (L1-CR-L2). We generated a truncated version of the receptor containing the N-terminal three domains (residues 1-462) fused to an IgG1-Fc and compared its ability to bind M13-C06, M14-C03, and M14-G11 to that of the full-length receptor ectodomain construct, hIGF-1R-Fc, using surface plasmon resonance (SPR).
# [3] = target: T3, hIGF-1R-Fc (Homo sapiens, UniProt P08069); assay: Antibody cross-blocking ELISA with biotinylated M13-C06 or M14-G11; format: binding
# T3 construct: (3) human IGF-1R(1-903)-Fc (hIGF-1R-Fc, Biogen Idec); host or cells: CHO
# Description: The ability of various antibodies to block M13-C06 or M14-G11 was determined using biotinylated version of both antibodies and hIGF-1R-Fc. Briefly, 50 μL of 2 μg/mL hIGF-1R-Fc in 1×PBS were coated per well of a 96-well clear MaxiSorp plate (Nunc) for 2 hours at room temperature (RT, no shaking). Plates were washed with 1×PBS and blocked overnight at 2-8° C. using a PBS/1% BSA solution. Plates were washed and incubated with a 100 μL mixture of biotinylated M13-C06 or biotinylated M14-G11 (80 ng/mL) and inhibitor antibody for 1 hour at RT. Inhibitor antibodies were serially diluted (5-fold dilutions) from 40 μg/mL to 3 ng/mL. M13-C06 and M14-G11 were biotinylated using EZ-Link Sulfo-NHS-LC-Biotin according to protocol provided by the manufacturer (Pierce Cat. No. 21335). A control was also performed by serial dilution of a non-IGF-1R specific IgG4 isotype control antibody with biotinylated M13-C06 or biotinylated M14-G11. Plates were washed and shaken for 1 hour at RT with 100 μL/well streptavidin-HRP (1:4000 dilution into blocking buffer, Southern Biotech Cat. No. 7100-05). Plates were washed and 100 μL/well SureBlue Reserve TMB Microwell Peroxidase Substrate (KPL, Cat. No. 53-00-01) was added to the wells. Detection of the presence of biotinylated M13-C06 or M14-G11 was performed by reading the absorbance at 650 nm every 5 minutes using a Wallac 1420-041 Multilabel Counter plate reader.
# [4] = target: T3, hIGF-1R-Fc; assay: IGF-1 and IGF-2 blocking ELISA-based competition assay; format: binding
# Description: hIGF-1R-Fc was biotinylated using EZ-Link Sulfo-NHS-LC-Biotin according to the protocol provided by the manufacturer (Pierce Cat. No. 21335). Biotinylated human IGF-1R-Fc at 5 μg/ml was added to the wells of SigmaScreen streptavidin-coated 96-well plates (Sigma, Cat. No. M5432-5EA; Sigma-Aldrich Corp. (St. Louis, Mo., USA)) at 100 μL/well and incubated overnight at 2-8° C. The plates were then washed four times with 200 μL/well PBST. […] Dilutions were made from 1.3 μM to 10 pM for M13-C06 and M14-C03, from 5.2 μM to […] for M14-G11, and from 2.6 μM to 10 pM for both P1E2 and αIR3. Human IGF-2 His was prepared at 320 nM in PBST, 1.0 mg/ml BSA. The antibodies were serial diluted (from […] to 5 pM for M13-C06 and M14-C03, from 5.2 μM to 5 pM for M14-G11 and αIR3, and from 5.2 μM to 20 pM for P1E2) using a solution of 320 nM IGF-2 His. The dilutions were added to the plates in duplicate at 100 μL/well and the plates were incubated at RT for 1 hour. The plates were then washed four times with 200 μL/well PBST. An HRP-conjugated anti-Histag antibody (Penta-His HRP Conjugate, QIAGEN, Cat. No. 1014992) was diluted 1:1000 in PBST and added to plates at 100 μL/well, and the plates were incubated at RT for one hour. […] The absorbance of each well was determined at 450 nm, and the results were normalized and plotted against the log of antibody concentration.
molecule,measurement,setting,value
B1,binding of hIGF-1R-His10 to immobilized antibody surface,[1],demonstrated binding
same,binding to truncated hIGF-1R(1-462)-Fc compared with full-length hIGF-1R-Fc,[2],dramatically reduced
same,M13-C06 cross-blocking,[3],+++++ (+++++ = antibody binding competition relative to itself (90-100%))
same,blocking of IGF-1 binding to IGF-1R,[4]; 320 nM IGF-1 His,block both IGF-1 and IGF-2 binding to IGF-1R
same,blocking of IGF-2 binding to IGF-1R,[4]; 320 nM IGF-2 His,block both IGF-1 and IGF-2 binding to IGF-1R
